From patent publication US11994512B2, “Single-cell genomic methods to generate ex vivo cell systems that recapitulate in vivo biology with improved fidelity” (Massachusetts Institute of Technology, priority 2018, dated 2024) come the findings set out here.

To fix the notation:
B1: P31362 (protein, UniProt P31362 1-431, looked up)
chain: MVNLEPMHTEIKMSGDVADSTDTRSTFGQVEPGNDRNGLDFNRQIKTEDLGDSLQQTLSHRPCHLSQGPTMMPGNQMSGDMASLHPLQQLVLVPGHLQSVSQFLLSQTPPGQQGLQPNLLSFPQQQSTLLLPQTGPGLASQAVGRPGLSGSSLEPHLDAPQHLPGPKHLPGPGGNDEPTDLEELEKFAKTFKQRRIKLGFTQGDVGLAMGKLYGNDFSQTTISRFEALNLSFKNMCKLKPLLEKWLNDAESSPSDPSASTPSSYPTLSEVFGRKRKKRTSIETNIRLTLEKRFQDNPKPSSEEISMIAEQLSMEKEVVRVWFCNRRQKEKRINCPVATPVKPPIYNSRLVSPSGSLGPLSVPPVHSTMPGTVTSSCSPGNNSRPSSPGSGLHASSPTASQNNSKAAMNSSSSSSFNSSGSWYRWNHPTYLH
modifications: full-length
B2: P27600 (protein, UniProt P27600 1-379, looked up)
chain: MSGVVRTLSRCLLPAEAGARERRAGAARDAEREARRRSRDIDALLARERRAVRRLVKILLLGAGESGKSTFLKQMRIIHGREFDQKALLEFRDTIFDNILKGSRVLVDARDKLGIPWQHSENEKHGMFLMAFENKAGLPVEPATFQLYVPALSALWRDSGIREAFSRRSEFQLGESVKYFLDNLDRIGQLNYFPSKQDILLARKATKGIVEHDFVIKKIPFKMVDVGGQRSQRQKWFQCFDGITSILFMVSSSEYDQVLMEDRRTNRLVESMNIFETIVNNKLFFNVSIILFLNKMDLLVEKVKSVSIKKHFPDFKGDPHRLEDVQRYLVQCFDRKRRNRSKPLFHHFTTAIDTENIRFVFHAVKDTILQENLKDIMLQ
modifications: full-length
B3: P48036 (protein, UniProt P48036 1-319, looked up)
chain: MATRGTVTDFPGFDGRADAEVLRKAMKGLGTDEDSILNLLTSRSNAQRQEIAQEFKTLFGRDLVDDLKSELTGKFEKLIVAMMKPSRLYDAYELKHALKGAGTDEKVLTEIIASRTPEELSAIKQVYEEEYGSNLEDDVVGDTSGYYQRMLVVLLQANRDPDTAIDDAQVELDAQALFQAGELKWGTDEEKFITIFGTRSVSHLRRVFDKYMTISGFQIEETIDRETSGNLEQLLLAVVKSIRSIPAYLAETLYYAMKGAGTDDHTLIRVVVSRSEIDLFNIRKEFRKNFATSLYSMIKGDTSGDYKKALLLLCGGEDD
modifications: full-length
B4: P48281 (protein, UniProt P48281 1-422, looked up)
chain: MEAMAASTSLPDPGDFDRNVPRICGVCGDRATGFHFNAMTCEGCKGFFRRSMKRKALFTCPFNGDCRITKDNRRHCQACRLKRCVDIGMMKEFILTDEEVQRKREMIMKRKEEEALKDSLRPKLSEEQQHIIAILLDAHHKTYDPTYADFRDFRPPIRADVSTGSYSPRPTLSFSGDSSSNSDLYTPSLDMMEPASFSTMDLNEEGSDDPSVTLDLSPLSMLPHLADLVSYSIQKVIGFAKMIPGFRDLTSDDQIVLLKSSAIEVIMLRSNQSFTLDDMSWDCGSQDYKYDITDVSRAGHTLELIEPLIKFQVGLKKLNLHEEEHVLLMAICIVSPDRPGVQDAKLVEAIQDRLSNTLQTYIRCRHPPPGSHQLYAKMIQKLADLRSLNEEHSKQYRSLSFQPENSMKLTPLVLEVFGNEIS
modifications: full-length
B5: P30681 (protein, UniProt P30681 1-210, looked up)
chain: MGKGDPNKPRGKMSSYAFFVQTCREEHKKKHPDSSVNFAEFSKKCSERWKTMSAKEKSKFEDLAKSDKARYDREMKNYVPPKGDKKGKKKDPNAPKRPPSAFFLFCSENRPKIKIEHPGLSIGDTAKKLGEMWSEQSAKDKQPYEQKAAKLKEKYEKDIAAYRAKGKSEAGKKGPGRPTGSKKKNEPEDEEEEEEEEEEEDDEEEEEDEE
modifications: full-length
B6: P43883 (protein, UniProt P43883 1-425, looked up)
chain: MAAAVVDPQQSVVMRVANLPLVSSTYDLVSSAYVSTKDQYPYLRSVCEMAEKGVKTVTSAAMTSALPIIQKLEPQIAVANTYACKGLDRMEERLPILNQPTSEIVASARGAVTGAKDVVTTTMAGAKDSVASTVSGVVDKTKGAVTGSVERTKSVVNGSINTVLGMVQFMNSGVDNAITKSELLVDQYFPLTQEELEMEAKKVEGFDMVQKPSNYERLESLSTKLCSRAYHQALSRVKEAKQKSQETISQLHSTVHLIEFARKNMHSANQKIQGAQDKLYVSWVEWKRSIGYDDTDESHCVEHIESRTLAIARNLTQQLQTTCQTVLVNAQGLPQNIQDQAKHLGVMAGDIYSVFRNAASFKEVSDGVLTSSKGQLQKMKESLDEVMDYFVNNTPLNWLVGPFYPQSTEVNKASLKVQQSEVKAQ
modifications: full-length
B7: P43137 (protein, UniProt P43137 1-165, looked up)
chain: MARNAYFILLSCLIVLSPSQGQEAEEDLPSARISCPEGSNAYSSYCYYFTEDRLTWADADLFCQNMNSGYLVSVLSQAEGNFVASLIKESGTTDANVWTGLHDPKRNRRWHWSSGSLFLYKSWATGSPNSSNRGYCVSLTSNTGYKKWKDDNCDAQYSFVCKFKG
modifications: full-length
B8: P40338 (protein, UniProt P40338 1-181, looked up)
chain: MPRKAASPEEAAGEPGPEEMEAGRPRPVLRSVNSREPSQVIFCNRSPRVVLPLWLNFDGEPQPYPILPPGTGRRIHSYRGHLWLFRDAGTHDGLLVNQTELFVPSLNVDGQPIFANITLPVYTLKERCLQVVRSLVKPENYRRLDIVRSLYEDLEDYPSVRKDIQRLSQEHLESQHLEEEP
modifications: full-length

The first test relates to intracellular proteome of ENR+CD and ENR organoids. Description: LC-MS/MS TMT proteomics of ENR+CD versus ENR organoids. The class given is cell-based, C57BL/6 mice. The following applies: protein abundance, ENR+CD versus ENR organoids; aggregate of the four sample pairs.
B1: the “Average logFC” value is on record as −1.897.

Consider B2, for which the “Average logFC” value is on record as −2.195.

B3: the “Average logFC” value was found to be 1.143.

Take B4: the “Average logFC” value is given as −1.442.

As to B5, the “Average logFC” value was −1.315.

With B6, the “Average logFC” value amounted to 1.236.

As to B7, the “Average logFC” value was −2.852.

As to B8, the “Average logFC” value is −1.533.

The same test, now with this note: protein abundance, ENR+CD versus ENR organoids; replicate M1-1; log2 ratio.
As for B1, the “M1-1 Log2 Median Normalized” value is −1.567.

With B2, the “M1-1 Log2 Median Normalized” value was −1.957.

Consider B3, for which the “M1-1 Log2 Median Normalized” value is on record as 1.196.

Regarding B4, the “M1-1 Log2 Median Normalized” value is listed as −1.589.

Regarding B5, the “M1-1 Log2 Median Normalized” value is reported as −1.316.

On to B6, for which the “M1-1 Log2 Median Normalized” value stood at 1.328.

B7: the “M1-1 Log2 Median Normalized” value is recorded as −2.092.

As to B8, the “M1-1 Log2 Median Normalized” value is reported as −1.026.

The test is the same for the next values; noted with them: protein abundance, ENR+CD versus ENR organoids; replicate M1-2; log2 ratio.
Regarding B1, the “M1-2 Log2 Median Normalized” value is recorded as −1.082.

Turning to B2, the “M1-2 Log2 Median Normalized” value is −1.145.

On to B3, for which the “M1-2 Log2 Median Normalized” value is listed as 1.332.

For B4, the “M1-2 Log2 Median Normalized” value is −1.441.

Take B5: the “M1-2 Log2 Median Normalized” value is on record as −1.094.

Take B6: the “M1-2 Log2 Median Normalized” value came out at 1.122.

Take B7: the “M1-2 Log2 Median Normalized” value is −3.168.

Regarding B8, the “M1-2 Log2 Median Normalized” value is recorded as −1.492.

The test is the same for the next values; noted with them: protein abundance, ENR+CD versus ENR organoids; replicate M2-1; log2 ratio.
With B1, the “M2-1 Log2 Median Normalized” value is −2.3845.

B2: the “M2-1 Log2 Median Normalized” value is recorded as −2.8495.

For the molecule B3, the “M2-1 Log2 Median Normalized” value was determined as 1.1055.

With B4, the “M2-1 Log2 Median Normalized” value is −1.0795.

For B5, the “M2-1 Log2 Median Normalized” value was −1.2715.

Turning to B6, the “M2-1 Log2 Median Normalized” value is reported as 0.9365.

For B7, the “M2-1 Log2 Median Normalized” value is given as −4.1035.

In the case of B8, the “M2-1 Log2 Median Normalized” value is −1.5695.

The same test, now with this note: protein abundance, ENR+CD versus ENR organoids; replicate M2-2; log2 ratio.
Turning to B1, the “M2-2 Log2 Median Normalized” value is reported as −2.554.

Turning to B2, the “M2-2 Log2 Median Normalized” value was −2.827.

On to B3, for which the “M2-2 Log2 Median Normalized” value was determined as 0.94.

With B4, the “M2-2 Log2 Median Normalized” value is on record as −1.499.

As to B5, the “M2-2 Log2 Median Normalized” value was −1.62.

Consider B6, for which the “M2-2 Log2 Median Normalized” value is on record as 1.559.

With B7, the “M2-2 Log2 Median Normalized” value was −2.045.

B8: the “M2-2 Log2 Median Normalized” value is listed as −2.043.

The test is the same for the next values; noted with them: up = enriched in ENR+CD, down = enriched in ENR; FDR<0.05 and log fold change cut-off.
In the case of B1, the change entry is on record as “down”.

With B2, the change result is given as “down”.

As to B3, the change entry was “up”.

Turning to B4, the change entry was “down”.

Regarding B5, the change result is recorded as “down”.

B6: the change entry was “up”.

In the case of B7, the change entry is recorded as “down”.

For the molecule B8, the change entry is given as “down”.
